This passage reports percentage of transfected N2a cells exhibiting rapalog-induced Hrs recruitment to the centrosome/centriole (transport assay with BicD2-GFP-FKBP, kinesin tail-FRB-Myc and linker AP21967) results from PMC9152131.

The target of this assay is RFP-Hrs (UniProt O14964).
Sequence of UniProt O14964 (O14964 whole entry): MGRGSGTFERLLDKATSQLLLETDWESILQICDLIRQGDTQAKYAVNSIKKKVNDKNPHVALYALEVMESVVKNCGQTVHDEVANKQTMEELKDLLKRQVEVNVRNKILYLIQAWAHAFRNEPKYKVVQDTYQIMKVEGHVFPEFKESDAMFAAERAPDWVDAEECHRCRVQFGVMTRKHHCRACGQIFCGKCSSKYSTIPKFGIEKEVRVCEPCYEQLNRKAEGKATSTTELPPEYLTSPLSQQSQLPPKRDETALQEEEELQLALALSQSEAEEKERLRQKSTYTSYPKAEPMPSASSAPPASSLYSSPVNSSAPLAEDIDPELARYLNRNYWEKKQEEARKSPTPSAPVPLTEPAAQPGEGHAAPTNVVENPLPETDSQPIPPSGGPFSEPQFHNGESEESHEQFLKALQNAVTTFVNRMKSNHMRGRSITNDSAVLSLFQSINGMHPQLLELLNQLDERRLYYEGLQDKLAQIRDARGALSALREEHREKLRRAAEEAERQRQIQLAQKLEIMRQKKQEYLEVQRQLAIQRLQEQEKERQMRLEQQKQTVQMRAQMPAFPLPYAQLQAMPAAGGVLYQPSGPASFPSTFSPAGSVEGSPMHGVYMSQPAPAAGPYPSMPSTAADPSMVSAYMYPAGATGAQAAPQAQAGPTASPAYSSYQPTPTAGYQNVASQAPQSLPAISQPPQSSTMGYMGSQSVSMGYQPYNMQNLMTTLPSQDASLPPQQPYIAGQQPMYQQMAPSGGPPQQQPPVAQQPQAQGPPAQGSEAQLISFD

B1: KIF13B-FRB-Myc (pBa-FRB-3myc-KIF13B tail 442–1826) (domain or fragment)
chain: KVGDDKCFLVNLNADPALNELLVYYLKEHTLIGSANSQDIQLCGMGILPEHCIIDITSEGQVMLTPQKNTRTFVNGSSVSSPIQLHHGDRILWGNNHFFRLNLPKKKKKAEREDEDQDPSMKNENSSEQLDVDGDSSSEVSSEVNFNYEYAQMEVTMKALGSNDPMQSILNSLEQQHEEEKRSALERQRLMYEHELEQLRRRLSPEKQNCRSMDRFSFHSPSAQQRLRQWAEEREATLNNSLMRLREQIVKANLLVREANYIAEELDKRTEYKVTLQIPASSLDANRKRGSLLSEPAIQVRRKGKGKQIWSLEKLDNRLLDMRDLYQEWKECEEDNPVIRSYFKRADPFYDEQENHSLIGVANVFLESLFYDVKLQYAVPIINQKGEVAGRLHVEVMRLSGDVGERIAGGDEVAEVSFEKETQENKLVCMVKILQATGLPQHLSHFVFCKYSFWDQQEPVIVAPEVDTSSSSVSKEPHCMVVFDHCNEFSVNITEDFIEHLSEGALAIEVYGHKINDPRKNPALWDLGIIQAKTRSLRDRWSEVTRKLEFWVQILEQNENGEYCPVEVISAKDVPTGGIFQLRQGQSRRVQVEVKSVQESGTLPLMEECILSVGIGCVKVRPLRAPRTHETFHEEEEDMDSYQDRDLERLRRKWLNALTKRQEYLDQQLQKLVSKRDKTEDDADREAQLLEMRLTLTEERNAVMVPSAGSGIPGAPAEWTPVPGMETHIPVIFLDLNADDFSSQDNLDDPEAGGWDATLTGEEEEEFFELQIVKQHDGEVKAEASWDSAVHGCPQLSRGTPVDERLFLIVRVTVQLSHPADMQLVLRKRICVNVHGRQGFAQSLLKKMSHRSSIPGCGVTFEIVSNIPEDAQGVEEREALARMAANVENPASADSEAYIEKYLRSVLAVENLLTLDRLRQEVAVKEQLTGKGKLSRRSISSPNVNRLSGSRQDLIPSYSLGSNKGRWESQQDVSQTTVSRGIAPAPALSVSPQNNHSPDPGLSNLAASYLNPVKSFVPQMPKLLKSLFPVRDEKRGKRPSPLAHQPVPRIMVQSASPDIRVTRMEEAQPEMGPDVLVQTMGAPALKICDKPAKVPSPPPVIAVTAVTPAPEAQDGPPSPLSEASSGYFSHSVSTATLSDALGPGLDAAAPPGSMPTAPEAEPEAPISHPPPPTAVPAEEPPGPQQLVSPGRERPDLEAPAPGSPFRVRRVRASELRSFSRMLAGDPGCSPGAEGNAPAPGAGGQALASDSEEADEVPEWLREGEFVTVGAHKTGVVRYVGPADFQEGTWVGVELDLPSGKNDGSIGGKQYFRCNPGYGLLVRPSRVRRATGPVRRRSTGLRLGAPEARRSATLSGSATNLASLTAALAKADRSHKNPENRKSWAS
B1 had a percentage of transfected N2a cells exhibiting rapalog-induced Hrs recruitment to the centrosome/centriole (transport assay with BicD2-GFP-FKBP, kinesin tail-FRB-Myc and linker AP21967) of 13%.
